Like-named read-outs stand apart in the source and are kept apart here.
What was measured:
human PSMA on cells = human PSMA on cells (human); assay: FACS, 22RV1
[1] = molecular target: human PSMA, N-terminal 6xHis (soluble) (human); assay: SPR, 37C
[2] = molecular target: human CD3 on Jurkat cells (human); assay: FACS
[3] = molecular target: human CD3 on Jurkat cells (human); assay: FACS; remark: listed apart in the source
[4] = molecular target: human CD3 epsilon/delta heterodimer, Fc-tagged (human); assay: SPR, 25C antigen-capture
human CD3 epsilon/delta heterodimer, Fc-tagged (human), sequence (chain, as listed by the source mutant, chain 1 of 2): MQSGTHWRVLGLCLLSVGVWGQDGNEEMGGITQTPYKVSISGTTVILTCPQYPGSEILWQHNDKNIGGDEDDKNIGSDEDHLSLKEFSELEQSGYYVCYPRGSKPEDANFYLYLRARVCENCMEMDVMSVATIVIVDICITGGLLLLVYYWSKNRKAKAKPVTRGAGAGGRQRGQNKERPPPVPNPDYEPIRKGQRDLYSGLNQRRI
human CD3 epsilon/delta heterodimer, Fc-tagged (human), sequence (chain, as listed by the source mutant, chain 2 of 2): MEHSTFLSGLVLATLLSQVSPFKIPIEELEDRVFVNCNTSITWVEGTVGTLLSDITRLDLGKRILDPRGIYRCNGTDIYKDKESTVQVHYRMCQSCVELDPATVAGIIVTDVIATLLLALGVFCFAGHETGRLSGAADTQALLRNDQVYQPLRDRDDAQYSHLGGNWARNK

human CD3 on Jurkat cells (human), sequence (chain, as listed by the source, chain 1 of 2): as the sequence (chain, as listed by the source mutant, chain 1 of 2) above
human CD3 on Jurkat cells (human), sequence (chain, as listed by the source, chain 2 of 2): as the sequence (chain, as listed by the source mutant, chain 2 of 2) above
human PSMA on cells (human), sequence (A4UU12 whole entry): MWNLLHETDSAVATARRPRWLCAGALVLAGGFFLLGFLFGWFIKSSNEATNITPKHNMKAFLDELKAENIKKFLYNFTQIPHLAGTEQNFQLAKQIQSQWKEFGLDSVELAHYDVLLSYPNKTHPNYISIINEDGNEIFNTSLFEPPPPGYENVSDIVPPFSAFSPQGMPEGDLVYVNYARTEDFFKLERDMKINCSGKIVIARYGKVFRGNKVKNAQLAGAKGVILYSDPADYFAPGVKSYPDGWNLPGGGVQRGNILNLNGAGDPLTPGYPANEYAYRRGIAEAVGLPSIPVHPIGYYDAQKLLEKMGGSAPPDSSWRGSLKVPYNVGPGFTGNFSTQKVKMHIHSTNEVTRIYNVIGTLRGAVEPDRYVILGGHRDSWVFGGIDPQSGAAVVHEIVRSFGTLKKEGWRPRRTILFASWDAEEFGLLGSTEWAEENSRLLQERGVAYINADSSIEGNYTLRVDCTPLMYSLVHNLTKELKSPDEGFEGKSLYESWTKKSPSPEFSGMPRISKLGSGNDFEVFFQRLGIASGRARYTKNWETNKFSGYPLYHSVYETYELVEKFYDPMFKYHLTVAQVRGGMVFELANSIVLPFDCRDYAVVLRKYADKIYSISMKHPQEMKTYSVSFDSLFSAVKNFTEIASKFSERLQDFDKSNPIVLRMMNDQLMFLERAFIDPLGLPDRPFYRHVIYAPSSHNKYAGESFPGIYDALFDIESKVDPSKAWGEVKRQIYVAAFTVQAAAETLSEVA
human PSMA, N-terminal 6xHis (soluble) (human), sequence (A4UU12 whole entry): as above

B1: BSPSMA/CD3-001 PSMA arm (antibody, V domains shown)
VH: QVQLVESGGGVVQPGRSLRLSCAASGFTFITYGMHWVRQAPGKGLEWVAIIYYDESNKYYADSVKGRFTISRDISKNTLYLQMNGLRAEDTAVYYCARAPRVAVEEDYSYYYGMDVWGQGTTVTVSS
VL: EIVMTQSPATLSVSPGERAILSCRASQNINSNLAWYQQKPGQAPRLLIYGASTRATGVPARFSGSGSGTEFTLTIRSLQSEDFAVYYCQQYYNWPITFGHGTRLEIK
Human PSMA on cells
  EC50: 78.5 nM

B2: H1H11835P2 (antibody, V domains shown)
VH: EVQLVESGGGLVQSGGSLRLSCEASGFTFSNYWMTWIRQGPGKGLEWVANIKPDGTENYYVDSVKGRFTISRDNARNSLYLQMTSLKAEDTAVYYCGRMIQFVINIWGQGTLVTVSS
VL: DIQMTQSPSSLSASVGDSVTITCRASQSINNYLNWYQQKPGKAPKLLIYTASSLLSGVPSRFSGSGSGTDFTLTISGLHPEDFATYFCQQSFSTPPITFGQGTRLDIK
[1]
  Kd: 14 nM

B3: H2M2689N (antibody, V domains shown)
VH: QVQLVESGGGVVQPGRSLRLSCAASGFTFSRKGMHWVRQAPVKGLEWVAVISYDGSNKYYADSVKGRFTISRDNSKNTLYLQMNSLTAEDTAVYYCAKEGGHDYGGTFDYWGQGTLVTVSS
VL: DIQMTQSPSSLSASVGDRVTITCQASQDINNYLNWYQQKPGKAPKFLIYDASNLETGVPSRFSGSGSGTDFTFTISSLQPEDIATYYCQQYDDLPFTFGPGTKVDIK
[2]
  binding result: no binding

B4: H1H7279P (antibody, V domains shown)
VH: EVQLVESGGGLVKPGGSLRISCAASGFSFINAWMNWVRQAPGKGLEWVGRIKSISDGGTTDYAASVKGRFTISREDSKNMLFLEMNSLKTEDTAVFYCTTEVARTPNYWGRGTLVTVSS
VL: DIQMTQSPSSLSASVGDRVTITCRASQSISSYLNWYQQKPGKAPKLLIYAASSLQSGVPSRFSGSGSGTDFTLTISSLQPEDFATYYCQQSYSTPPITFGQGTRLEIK
[3]
  binding result: no binding
[4]
  binding result: no binding
